# Reference: patent US7615380B2, “Methods for modulating an immune response by modulating KRC activity” (President and Fellows of Harvard College, priority 2001, dated 2009)
# Like-named read-outs stand apart in the source and are kept apart here.
# B1: KRC tr: truncated KRC, amino acid residues 204 to 1055 of SEQ ID NO:2 (protein, listed as Homo sapiens)
# chain: PSVLQKHIRSHTGERPYPCGPCGFSFKTKSNLYKHRKSHAHRIKAGLASGMGGEMYPHGLEMERIPGEEFEEPTEGESTDSEEETSATSGHPAELSPRPKQPLLSSGLYSSGSHSSSHERCSLSQSSTAQSLEDPPPFVEPSSEHPLSHKPEDTHTIKQKLALRLSERKKVIDEQAFLSPGSKGSTESGYFSRSESAEQQVSPPNTNAKSYAEIIFGKCGRIGQRTAMLTATSTQPLLPLSTEDKPSLVPLSVPRTQVIEHITKLITINEAVVDTSEIDSVKPRRSSLSRRSSMESPKSSLYREPLSSHSEKTKPEQSLLSLQHPPSTAPPVPLLRSHSMPSAACTISTPHHPFRGSYSFDDHITDSEALSRSSHVFTSHPRMLKPQPAIELPLGGEYSSEEPGPSSKDTASKPSDEVEPKESELTKKTKKGLKTKGVIYECNICGARYKKRDNYEAHKKYYCSELQIAKPISAGTHTSPEAEKSQIEHEPWSQMMHYKLGTTLELTPLRKRRKEKSLGDEEEPPAFESTKSQFGSPGPSDAARNLPLESTKSPAEPSKSVPSLEGPTGFQPRTPKPGSGSESGKERRTTSKEISVIQHTSSFEKSDSLEQPSGLEGEDKPLAQFPSPPPAPHGRSAHSLQPKLVRQPNIQVPEILVTEEPDRPDTEPEPPPKEPEKTEEFQWPQRSQTLAQLPAEKAPPKKKRLRLAEMAQSSGESSFESSVPLSRSPSQESNVSLSGSSRSASFERDDHGKAEAPDPSSDMRPKPLGTHMLTVPSHHPHAREMRRSASEQSPNVSHSAHMTETRSKSFDYGSLSLTGPSAPAPVAPPAGEAPPERRKCFLVRSPSLSRPP
# How the values were obtained:
# [1] = tested on: AP-1; assay: AP-1 luciferase reporter in Jurkat cells, KRC-enhanced transactivation after PMA plus ionomycin; type: cell-based, human; details: pretreated with Rottlerin (10 μM), PMA plus ionomycin 6 hours
# Procedure: FIG. 20(A) Jurkat cells were transiently transfected with AP-1 Luciferase reporter along with KRC and RasN17 DN vectors. 24 hours later cells were pretreated with Rottlerin (10 μM) and stimulated for 6 hours with PMA plus ionomycin. Luciferase activity was measured as above. FIG. 20(B) Jurkat cells were transfected with a GAL4 Luciferase reporter along with a GAL4 DNA binding domain, GAL4-ATF2, or GAL4-ELK1 with or without KRC. 24 hours later, cells were stimulated with PMA plus ionomycin and analyzed for Luciferase activity as above. FIG. 20(C) Jurkat cells were transiently transfected with FLAG-JNK2, and either Vector, KRC, or MKK7. 48 hours later, cells were stimulated with PMA plus ionomycin for 6 hours and JNK activity was determined by immunoprecipitation/kinase assay. Equal amounts of FLAG-Jnk2 protein were immunoprecipitated, as judged by anti-FLAG western blot (lower panel).
# For each transfection, 5×10^6 Jurkat cells were incubated with either IL2-Luc, NFAT/AP1-Luc or AP1-Luc reporter DNA together with pEF vector or pEF-KRC and CMV-βGAL as normalization control in 0.4 ml of RPMI and transfected by electroporation (260 v, 975 uF). Transfected cells were cultured at 37° C. for 20 h in RPMI 1640 medium (Gibco BRL) supplemented with 10% fetal bovine serum. Transfected cells were stimulated with PMA (50 ng/ml) and ionomycin (2 uM) for 6 hours prior to luciferase (Promega) and β-galactosidase assays (Galacton-PLUS substrate system, TROPIX, Inc).
# [2] = tested on: NFκB; assay: NFκB luciferase reporter transfection assay in 293T cells; type: cell-based, human
# Procedure: FIGS. 2(A)-2(C) depicts KRC preventing TRAF-dependent NFkB activation. Inhibition of TRAF2 (FIG. 2(A)), TRAF5 (FIG. 2(B)) and TRAF6 (FIG. 2(C)) mediated activation of NFkB by ectopically expressed KRC. 293 T cells (3×10^5 ) were transfected with 25 ng of NFkB luciferase reporter plasmid, 50 ng of CMVβGal and 1 μg of each indicated plasmid and 24 hours post transfection cells were harvested. Data from at least five experiments normalized for β galactosidase activity are shown. Vec refers to the empty MYC vector without the addition of TRAFs.
# 293 T cells (3×10^5 ) were transfected with 25 ng of NFκB luciferase reporter plasmid, 50 ng of CMVβGal and 1 μg of each indicated plasmid and 24 hours post transfection cells were stimulated for 4 hours with 10 ng/ml of TNFα. (A) KRC and KRC tr (B) dominant negative and antisense KRC (C) antisense KRC in the presence of exogenous TRAF2. Data from at least five experiments normalized for β galactosidase activity are shown.
# HEK293 cells ([…] per well) were seeded in 6 well plates, and 12 h later cells were transfected with EFECTENE™ (Qiagen) with 25 ng of a 2XNFκB-luciferase (Luc) reporter gene plasmid and 0.5 μg of the indicated TRAF and KRC expression vectors. Total amounts of transfected DNA were kept constant by supplementing with control empty expression vector plasmids as needed. Cell extracts were prepared 24 h after transfection, and reporter gene activity was determined via the luciferase assay system (PROMEGA). PRSV-βGal vector (50 ng) was used to normalize for transfection efficiency by measuring β galactosidase activity using the Galacton-PLUS substrate system (TROPIX, Inc.). Whenever indicated, the cells were treated for 4 hours with TNFα or IL-1 (10 ng/ml). To generate stable transfectants, EFECTENE™ mediated transfection of the RAW cell line was performed and clones were selected and maintained in complete medium supplemented with G418 (2 mg/ml).
# [3] = tested on: NIH 3T3 cells; assay: β-galactosidase cotransfection apoptosis assay in 3T3 cells; type: cell-based; details: TNFα 20 ng/ml
# Procedure: 3T3 cells were cotransfected with CMV lacZ vector (300 ng per plate) and either empty expression vector or the expression vectors indicated (2 μg of each). Half of the transfected cultured cells were treated with TNFα (20 ng/ml) at 12 hours after the transfection and the other half left untreated. All the cells were fixed and stained at 36 hours after the transfection. The number of blue cells in each transfection was determined by counting six different fields. A representative experiment of three performed is presented.
# β-galactosidase cotransfection assays for determination of cell death were performed as described (Hsu, et al.). Transfected NIH 3T3 cells were washed with PBS, fixed in PBS containing 3% paraformaldehyde for 10 min at 4° C., and washed with PBS. Fixed cells were stained overnight with XGal. The number of blue-stained cells was determined microscopically. The average number from one representative experiment of three is shown.
# [4] = molecular target: T1, c-Jun (Homo sapiens, UniProt P05412); assay: Coimmunoprecipitation / in vitro pull down with c-Jun; type: binding
# T1 construct: expressed in transfected cells; host or cells: 293T cells (co-IP); in vitro translated, 35S-labelled c-Jun in the pull-down
# Procedure: FIG. 21(A) 293T cells were transfected with c-Jun and myc-KRCtr. 48 hours later, lysates were immunoprecipitated with anti-Myc antibody. Immunoprecipitates were probed by western blotting with anti-c-Jun antibody. FIG. 21(B) (left panel) 293T cells were cotransfected with c-Jun and full length His-KRC. 48 hours later, lysates were immunoprecipitated with anti-His antibody (DE8 Omniprobe) and precipitates were probed by western blotting with anti-c-Jun antibody. (right panel) In vitro translated and S35-labelled c-Jun and His-KRCtr were mixed and immunoprecipitated with anti-His antibody. Recovered c-Jun protein was visualized by autoradiography. FIG. 21(C) Jurkat or EL4 T cells were stimulated with PMA plus ionomycin for 45 minutes. Lysates were immunoprecipitated with anti-c-Jun antibody, and immunoprecipitates were probed with specific anti-KRC rabbit antisera. FIG. 21(D) (upper panel) 293T cells were transfected with AP-1 Luciferase along with c-Jun, c-Fos, and KRC. 24 hours later, Luciferase activity was determined as above. (lower panel) 293T cells were transfected with GAL4 Luciferase along with GAL4, GAL4-c-Jun 1-224, or GAL4-c-Fos 208-313. 24 hours later, luciferase activity was determined as above. […]
# [5] = tested on: JNK; assay: JNK in vitro kinase assay after transfection of 293 cells; type: cell-based, human; details: 293 cells cotransfected with TRAF2, 24 hours
# Procedure: Inhibition of TRAF2 (A) and TNFα (B, C) mediated JNK/SAPK activation by ectopic expression of KRC. (A) 293 T cells were transfected with 400 ng of TRAF2 and 2 μg of the indicated expression vector. Twenty-four hours after the transfection, the cells were harvested and lysed, and the endogenous JNK was precipitated with 5 μg of GST-cJUN (1-79) for 4 hours. JNK activity was determined by using GST-cJUN (1-79) as a substrate. (B,C) 293 T cells were cotransfected with vectors encoding HA-tagged JNK2 (500ng) and the indicated expression vector (2 μg). Twenty-four hours after the transfection cells were stimulated for 10 min with 10 ng/ml of TNFα and cells harvested at varying time points. JNK activity was assayed with GST-cJUN (1-79) as substrate.
# Anti-HA or anti-FLAG immunoprecipitates were used for immune complex kinase assays that were performed at 30° C. for 30 min with 1 μg of substrate, 10 μCi of γ^32 P ATP, and 10 μM ATP in 30 μl of kinase buffer (20 mM HEPES, pH 7.4, 10 mM MgCl2, 25 mM β-glycerophosphate, 50 μm NA3VO4, and 50 μm DTT). The substrate was GST-c-JUN.
# T1 sequence (P05412 whole entry): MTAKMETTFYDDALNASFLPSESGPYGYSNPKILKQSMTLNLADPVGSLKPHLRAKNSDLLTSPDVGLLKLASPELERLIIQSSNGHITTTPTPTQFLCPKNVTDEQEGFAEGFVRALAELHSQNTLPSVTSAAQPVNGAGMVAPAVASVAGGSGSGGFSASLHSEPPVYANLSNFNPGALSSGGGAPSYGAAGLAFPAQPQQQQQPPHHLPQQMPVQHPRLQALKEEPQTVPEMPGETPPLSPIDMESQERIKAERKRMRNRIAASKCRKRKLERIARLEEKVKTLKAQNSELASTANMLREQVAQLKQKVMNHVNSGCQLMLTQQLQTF
Molecule,KRC transactivation of the AP-1 reporter [1],KRC transactivation of the AP-1 reporter ([1]; listed as rottlerin),NFκB activation induced by TRAF5 and TRAF6 ([2]; 293T cells),"NFkB-dependent transactivation ([2]; 293T cells, absence of exogenous TRAFs)","TRAF2-induced NFκB activation ([2]; 293T cells, exogenous TRAF2)","TNFα-induced NFκB activation ([2]; 293 cells, 10 ng/ml TNFα 4 hours)",TNFα-induced apoptosis (TNF mediated cytotoxicity) [3],physical association with c-Jun [4],physical association with c-Jun ([4]; listed as KRCtr),TRAF2-dependent JNK activation [5]
CC(=O)c1c(O)c(C)c(O)c(Cc2c(O)c3c(c(C(=O)/C=C/c4ccccc4)c2O)OC(C)(C)C=C3)c1O [Rottlerin],blocked,abolished the ability of KRC to enhance AP-1 transactivation,,,,,,,,
RasN17: dominant negative Ras,abolished the ability of KRC to enhance AP-1 transactivation,,,,,,,,,
B1,,,substantially but not completely affected,blocked NFkB-dependent transactivation,blocked TRAF2-induced NFκB activation,strongly inhibited TNFα-induced NFκB activation,The same effect was observed,physically associated with c-Jun,interacted with c-Jun,blocked TRAF2-dependent JNK activation
